Experimental data as given in paper PMC12657969.
Numbering of substitutions follows the chain as printed.

B1: 5'P-gDNA / T-tDNA target (mixed)
DNA 1: TGAGGTAGTAGGTTGTAT
DNA 2: AAACGACGGCCAGTGCCAAGCTTACTATACAACCTACTACCTCAT
modifications: guide 5' phosphate
B2: 5'OH-gDNA / T-tDNA target (mixed)
DNA 1: TGAGGTAGTAGGTTGTAT
DNA 2: B1 DNA 2
modifications: guide 5' OH
B3: 5'P-gDNA / U-tRNA (RNA target) (DNA:RNA)
DNA: TGAGGTAGTAGGTTGTAT
RNA: AAACGACGGCCAGUGCCAAGCUUACUAUACAACCUACUACCUCAU
modifications: guide 5' phosphate
B4: 5'OH-gDNA / U-tRNA (RNA target) (DNA:RNA)
DNA: TGAGGTAGTAGGTTGTAT
RNA: B3 RNA
modifications: guide 5' OH

Key:
GgeAgo = biological target: T1, GgeAgo (Geobacillus genomosp. 3, UniProt S5Z517 1-710); assay: fluorescence polarization
T1 sequence: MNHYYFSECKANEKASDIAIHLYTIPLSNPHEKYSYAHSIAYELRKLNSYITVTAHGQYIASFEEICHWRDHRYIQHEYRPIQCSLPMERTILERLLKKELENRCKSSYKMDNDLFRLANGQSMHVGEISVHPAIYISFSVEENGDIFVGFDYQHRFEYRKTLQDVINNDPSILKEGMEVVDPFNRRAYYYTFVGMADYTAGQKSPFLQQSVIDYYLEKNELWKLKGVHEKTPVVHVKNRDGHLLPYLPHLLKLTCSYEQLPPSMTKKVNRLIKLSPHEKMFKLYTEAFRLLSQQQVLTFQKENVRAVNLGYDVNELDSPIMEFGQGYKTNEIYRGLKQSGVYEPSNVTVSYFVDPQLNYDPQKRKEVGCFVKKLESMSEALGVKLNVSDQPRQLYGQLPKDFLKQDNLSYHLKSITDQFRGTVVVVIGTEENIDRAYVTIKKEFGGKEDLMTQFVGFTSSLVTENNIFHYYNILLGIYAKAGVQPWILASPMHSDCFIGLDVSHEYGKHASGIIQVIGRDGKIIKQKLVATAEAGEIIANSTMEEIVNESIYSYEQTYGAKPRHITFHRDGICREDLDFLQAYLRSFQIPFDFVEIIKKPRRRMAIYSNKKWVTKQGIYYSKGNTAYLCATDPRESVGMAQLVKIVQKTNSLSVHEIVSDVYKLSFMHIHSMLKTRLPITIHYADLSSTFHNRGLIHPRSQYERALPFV

GgeAgo_DM = biological target: T2, GgeAgo_DM (Geobacillus genomosp. 3, UniProt S5Z517 1-710, D502A;D571A); assay: fluorescence polarization
T2 sequence: T1 sequence with D502A, D571A

| Binder | Kd (GgeAgo) | Kd (GgeAgo_DM) |
| --- | --- | --- |
| TGAGGTAGTAGGTTGTAT (ssDNA, 5' phosphate) [5'P-gDNA (T-gDNA iFAM)] | 8.23 ± 1.47 nM | – |
| TGAGGTAGTAGGTTGTAT (ssDNA, 5' OH) [5'OH-gDNA (T-gDNA iFAM)] | 11.1 ± 1.88 nM | – |
| B1 | – | 8.69 ± 1.28 nM |
| B2 | – | 20 ± 2.29 nM |
| B3 | – | 10.7 ± 1.11 nM |
| B4 | – | 32.2 ± 4.9 nM |
